Holding throughout (experiment): Ki table, method not stated
One experiment has as its target BCL-XL (UniProt Q07817 1-209).
The target of a further experiment is BCL-2 (UniProt P10415 1-217, limits assumed).
The target of a further experiment is T1, MCL-1 (UniProt Q07820 172-327, limits assumed).
T1 construct: also called Myeloid cell leukemia 1

Positions of bridges follow the written chain, without caps; N, C: chain ends. Non-standard residues stand in square brackets, D forms with d. R8 = C=CCCCCCC[C@@](C)(N)C(=O)O; S5 = C=CCCC[C@](C)(N)C(=O)O

This note sets out measurements from US20180273587A1 (AILERON THERAPEUTICS, published 2018).

T1 sequence (Q07820 172-327 limits assumed): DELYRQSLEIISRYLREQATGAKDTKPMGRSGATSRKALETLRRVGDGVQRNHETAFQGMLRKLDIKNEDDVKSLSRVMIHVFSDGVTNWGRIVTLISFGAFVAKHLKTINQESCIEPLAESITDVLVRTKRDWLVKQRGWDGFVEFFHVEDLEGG
Chain of BCL-XL (Q07817 1-209): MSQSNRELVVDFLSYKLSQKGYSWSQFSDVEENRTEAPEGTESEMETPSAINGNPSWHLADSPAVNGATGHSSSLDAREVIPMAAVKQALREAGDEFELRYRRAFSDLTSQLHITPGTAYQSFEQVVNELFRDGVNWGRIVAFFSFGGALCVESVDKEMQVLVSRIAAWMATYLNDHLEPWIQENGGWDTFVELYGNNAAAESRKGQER
Chain of BCL-2 (P10415 1-217 limits assumed): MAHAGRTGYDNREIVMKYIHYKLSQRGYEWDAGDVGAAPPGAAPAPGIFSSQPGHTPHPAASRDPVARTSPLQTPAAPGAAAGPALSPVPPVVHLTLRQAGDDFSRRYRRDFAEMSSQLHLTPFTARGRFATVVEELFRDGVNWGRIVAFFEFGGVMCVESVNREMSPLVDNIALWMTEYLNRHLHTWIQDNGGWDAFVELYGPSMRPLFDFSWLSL

B1: SEQ ID NO: 1650 (peptide)
peptide: Ac-IWIAQALR[R8]IGDQFN[S5]YYA-NH2
modifications: staple 9-16
SMILES: CC[C@H](C)[C@H](NC(C)=O)C(=O)N[C@@H](Cc1c[nH]c2ccccc12)C(=O)N[C@H](C(=O)N[C@@H](C)C(=O)N[C@@H](CCC(N)=O)C(=O)N[C@@H](C)C(=O)N[C@@H](CC(C)C)C(=O)N[C@@H](CCCNC(=N)N)C(=O)N[C@]1(C)CCCCCCC=CCCC[C@@](C)(C(=O)N[C@@H](Cc2ccc(O)cc2)C(=O)N[C@@H](Cc2ccc(O)cc2)C(=O)N[C@@H](C)C(N)=O)NC(=O)[C@H](CC(N)=O)NC(=O)[C@H](Cc2ccccc2)NC(=O)[C@H](CCC(N)=O)NC(=O)[C@H](CC(=O)O)NC(=O)CNC(=O)[C@H]([C@@H](C)CC)NC1=O)[C@@H](C)CC
Regarding B1, the inhibition constant (Ki) was 12 nM with BCL-XL, 67 nM with BCL-2 and 5.2 nM with MCL-1.

B2: SEQ ID NO: 1652 (peptide)
peptide: Ac-IWIAAALR[R8]IGDQFN[S5]YYA-NH2
modifications: staple 9-16
SMILES: CC[C@H](C)[C@H](NC(C)=O)C(=O)N[C@@H](Cc1c[nH]c2ccccc12)C(=O)N[C@H](C(=O)N[C@@H](C)C(=O)N[C@@H](C)C(=O)N[C@@H](C)C(=O)N[C@@H](CC(C)C)C(=O)N[C@@H](CCCNC(=N)N)C(=O)N[C@]1(C)CCCCCCC=CCCC[C@@](C)(C(=O)N[C@@H](Cc2ccc(O)cc2)C(=O)N[C@@H](Cc2ccc(O)cc2)C(=O)N[C@@H](C)C(N)=O)NC(=O)[C@H](CC(N)=O)NC(=O)[C@H](Cc2ccccc2)NC(=O)[C@H](CCC(N)=O)NC(=O)[C@H](CC(=O)O)NC(=O)CNC(=O)[C@H]([C@@H](C)CC)NC1=O)[C@@H](C)CC
For B2, the Ki was 4 nM with BCL-XL, 22 nM with BCL-2 and 6 nM with MCL-1.

B3: SEQ ID NO: 1653 (peptide)
peptide: Ac-IWIAAALR[R8]IGDAFN[S5]YYA-NH2
modifications: staple 9-16
SMILES: CC[C@H](C)[C@H](NC(C)=O)C(=O)N[C@@H](Cc1c[nH]c2ccccc12)C(=O)N[C@H](C(=O)N[C@@H](C)C(=O)N[C@@H](C)C(=O)N[C@@H](C)C(=O)N[C@@H](CC(C)C)C(=O)N[C@@H](CCCNC(=N)N)C(=O)N[C@]1(C)CCCCCCC=CCCC[C@@](C)(C(=O)N[C@@H](Cc2ccc(O)cc2)C(=O)N[C@@H](Cc2ccc(O)cc2)C(=O)N[C@@H](C)C(N)=O)NC(=O)[C@H](CC(N)=O)NC(=O)[C@H](Cc2ccccc2)NC(=O)[C@H](C)NC(=O)[C@H](CC(=O)O)NC(=O)CNC(=O)[C@H]([C@@H](C)CC)NC1=O)[C@@H](C)CC
Take B3: the values for the Ki with BCL-XL, with BCL-2 and with MCL-1 were 25.6 nM, 65.4 nM and 6.7 nM, respectively.

B4: SEQ ID NO: 1651 (peptide)
peptide: Ac-IWIAAALR[R8]IGDEFN[S5]YYA-NH2
modifications: staple 9-16
SMILES: CC[C@H](C)[C@H](NC(C)=O)C(=O)N[C@@H](Cc1c[nH]c2ccccc12)C(=O)N[C@H](C(=O)N[C@@H](C)C(=O)N[C@@H](C)C(=O)N[C@@H](C)C(=O)N[C@@H](CC(C)C)C(=O)N[C@@H](CCCNC(=N)N)C(=O)N[C@]1(C)CCCCCCC=CCCC[C@@](C)(C(=O)N[C@@H](Cc2ccc(O)cc2)C(=O)N[C@@H](Cc2ccc(O)cc2)C(=O)N[C@@H](C)C(N)=O)NC(=O)[C@H](CC(N)=O)NC(=O)[C@H](Cc2ccccc2)NC(=O)[C@H](CCC(=O)O)NC(=O)[C@H](CC(=O)O)NC(=O)CNC(=O)[C@H]([C@@H](C)CC)NC1=O)[C@@H](C)CC
With B4, the Ki with BCL-XL came to 1 nM; with BCL-2, 6 nM; with MCL-1, 1 nM.

The Ki is a dissociation constant, usually derived from enzyme kinetics or from competition with a known ligand. The low end stands for tighter binding, the high end for weaker binding.
